Assay results from the supplement of paper PMC9876800.

Tested on: peptide library, one residue held at a place counted from the S/T acceptor
Assay: relative phosphorylation of the sub-library (ratio to the mean residue at this position); higher = residue favoured
Details: human
Method in brief: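 Purified recombinant kinases, either human or orthologue constructs, were incubated in 384-well plates with biotinylated degenerate peptide sub-libraries. Each sub-library fixed one residue at one position around a central Ser/Thr. Peptides at 50 μM and 50 μM ATP spiked with γ-32P-ATP were used for 90 min under kinase-specific conditions, and spots on streptavidin membranes were phosphorimaged and quantified by densitometry. Relative sub-library phosphorylation is expressed as a ratio to the mean residue at that position.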

DAPK3, construct: aa1-404, sequence (O43293 1-404, looked up): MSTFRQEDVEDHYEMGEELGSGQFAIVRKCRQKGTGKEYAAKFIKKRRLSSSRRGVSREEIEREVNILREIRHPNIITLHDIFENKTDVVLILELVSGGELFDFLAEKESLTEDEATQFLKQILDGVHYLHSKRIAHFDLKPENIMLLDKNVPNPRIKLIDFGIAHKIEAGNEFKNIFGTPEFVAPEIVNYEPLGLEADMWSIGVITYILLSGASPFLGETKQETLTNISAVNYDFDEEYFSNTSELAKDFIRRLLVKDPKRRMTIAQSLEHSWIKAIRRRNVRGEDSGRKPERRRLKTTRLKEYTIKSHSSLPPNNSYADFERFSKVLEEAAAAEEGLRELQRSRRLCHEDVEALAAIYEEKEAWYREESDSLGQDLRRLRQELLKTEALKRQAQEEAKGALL
ROCK2, construct: aa5-554, sequence (O75116 5-554, looked up): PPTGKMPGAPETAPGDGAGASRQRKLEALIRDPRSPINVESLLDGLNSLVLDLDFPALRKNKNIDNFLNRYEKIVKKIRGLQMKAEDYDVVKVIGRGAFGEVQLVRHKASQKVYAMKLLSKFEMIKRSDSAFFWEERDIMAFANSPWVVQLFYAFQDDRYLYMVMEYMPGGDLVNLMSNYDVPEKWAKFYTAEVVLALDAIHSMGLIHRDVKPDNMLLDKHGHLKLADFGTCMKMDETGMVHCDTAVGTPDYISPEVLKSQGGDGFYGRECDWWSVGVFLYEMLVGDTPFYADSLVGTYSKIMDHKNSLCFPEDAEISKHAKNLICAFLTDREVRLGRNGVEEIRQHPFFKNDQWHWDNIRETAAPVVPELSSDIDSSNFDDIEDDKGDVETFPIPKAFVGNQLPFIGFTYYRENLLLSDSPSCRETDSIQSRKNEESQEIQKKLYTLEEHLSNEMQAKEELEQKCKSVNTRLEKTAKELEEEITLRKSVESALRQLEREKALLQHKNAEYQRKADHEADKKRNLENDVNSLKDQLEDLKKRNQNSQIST
AAK1, construct: aa27-365, sequence (Q2M2I8 27-365, looked up): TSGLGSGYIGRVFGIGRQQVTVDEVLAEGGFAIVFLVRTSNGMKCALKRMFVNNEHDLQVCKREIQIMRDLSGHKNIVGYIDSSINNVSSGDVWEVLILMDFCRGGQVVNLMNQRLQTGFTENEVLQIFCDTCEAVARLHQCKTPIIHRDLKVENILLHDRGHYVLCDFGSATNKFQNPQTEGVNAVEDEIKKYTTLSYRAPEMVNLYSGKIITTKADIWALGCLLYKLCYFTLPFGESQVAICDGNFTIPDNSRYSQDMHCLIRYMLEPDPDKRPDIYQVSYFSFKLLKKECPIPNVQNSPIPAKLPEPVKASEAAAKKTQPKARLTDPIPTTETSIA
MAPK1, construct: Full length, sequence (P28482 whole entry, looked up): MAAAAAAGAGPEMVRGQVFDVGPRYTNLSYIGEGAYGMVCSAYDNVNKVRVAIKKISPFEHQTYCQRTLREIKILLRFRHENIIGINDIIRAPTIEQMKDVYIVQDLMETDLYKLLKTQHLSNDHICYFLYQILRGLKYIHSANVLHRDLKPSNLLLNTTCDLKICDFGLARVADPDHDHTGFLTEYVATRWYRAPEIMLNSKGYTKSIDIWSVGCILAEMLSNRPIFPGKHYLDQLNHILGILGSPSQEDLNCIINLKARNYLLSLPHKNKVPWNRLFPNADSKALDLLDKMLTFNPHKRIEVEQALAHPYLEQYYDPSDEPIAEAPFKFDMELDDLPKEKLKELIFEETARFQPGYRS

DAPK3, construct: aa1-404 (from UniProt O43293)
relative phosphorylation
Details	at +1	at +2	at +3	at +4	at -1	at -2	at -3	at -4	at -5
A fixed	0.877	0.903	0.724	0.839	0.73	1.06	0.654	1	0.953
D fixed	1.61	0.84	0.753	0.791	0.823	0.448	0.447	0.844	0.79
E fixed	1.69	0.976	0.719	0.706	0.601	0.398	0.393	0.85	0.666
F fixed	0.52	0.932	1.02	1.14	0.667	0.338	0.412	0.759	0.583
G fixed	1.15	0.661	0.89	0.939	0.888	0.74	0.636	0.947	1.03
H fixed	0.825	1.01	1.04	1.51	1.29	1.24	0.835	1.1	1.17
I fixed	0.786	0.873	1.95	0.95	0.58	0.313	0.311	0.645	0.73
K fixed	0.595	0.789	0.685	0.712	1.48	1.33	2.51	1.65	1.59
L fixed	0.707	1.44	1.63	0.902	0.946	0.361	0.365	0.677	0.927
M fixed	1.15	1.5	1.08	0.984	0.943	0.415	0.422	0.871	0.912
N fixed	1.33	1.03	0.776	1	1.69	0.952	0.548	0.85	0.891
P fixed	0.309	0.9	0.78	0.885	1.06	0.406	0.703	0.854	0.959
Q fixed	2.62	1.25	0.804	0.797	1.15	0.989	0.769	1.04	0.942
R fixed	0.811	1.13	0.942	1.03	1.71	6.46	6.61	2.25	2.36
V fixed	0.807	0.827	1.41	0.927	0.698	0.397	0.294	0.844	0.699
W fixed	0.638	0.941	0.984	1.61	0.753	0.755	0.634	1.02	0.776
Y fixed	0.582	1.01	0.808	1.28	1	0.401	0.462	0.803	1.01
pThr fixed	1.83	1.01	0.854	1.04	0.695	0.53	0.633	0.84	0.973
pTyr fixed	1.19	1.02	1.35	1.08	0.957	0.623	0.605	0.929	1.1

AAK1, construct: aa27-365 (from UniProt Q2M2I8)
relative phosphorylation
Details	at +1	at +2	at +3	at +4	at -1	at -2	at -3	at -4	at -5
A fixed	0.53	1.27	0.989	1.1	0.654	0.915	1.9	1.2	0.482
D fixed	0.174	0.939	0.688	0.662	0.274	1.37	0.462	0.565	0.273
E fixed	0.167	0.89	0.631	0.778	0.248	1.08	0.629	0.951	0.26
F fixed	0.219	0.826	0.731	0.89	0.926	0.571	0.828	0.883	0.722
G fixed	12.3	1.27	1.57	1.19	1.2	0.48	0.87	1.09	0.416
H fixed	0.272	1.05	1.15	0.951	1.17	0.963	0.676	0.874	0.564
I fixed	0.173	0.629	0.659	0.706	0.739	0.642	1.02	1.06	2.64
K fixed	0.33	0.98	1.26	1.41	2.09	0.998	0.879	1.38	0.445
L fixed	0.222	0.703	0.831	0.783	1.11	0.968	0.896	1.26	1.69
M fixed	0.21	0.817	0.743	0.789	0.941	1.98	1.33	1.18	1.47
N fixed	0.289	1.42	1.25	1.01	0.737	1.37	0.989	0.73	0.468
P fixed	0.787	0.896	1.16	1.07	1.93	0.385	1.84	0.908	1.22
Q fixed	0.235	1.31	1.06	1.08	0.675	2.58	1.18	1.07	0.952
R fixed	0.423	1.32	1.53	1.58	1.57	0.943	0.987	1.22	1.62
V fixed	0.182	0.922	1.04	0.718	0.666	0.578	1.09	1.05	1.62
W fixed	0.276	0.973	0.817	1.4	0.748	0.492	0.722	0.686	0.535
Y fixed	0.243	0.78	0.905	0.886	1.32	0.678	0.699	0.908	1.62
pThr fixed	0.209	0.696	0.57	0.427	0.206	0.356	0.514	0.564	0.342
pTyr fixed	0.171	0.697	0.61	0.46	0.303	0.826	0.466	0.576	1.04

MAPK1, construct: Full length (from UniProt P28482)
relative phosphorylation
Details	at +1	at +2	at +3	at +4	at -1	at -2	at -3	at -4	at -5
A fixed	0.973	0.668	0.858	0.681	0.711	0.878	1	0.906	0.914
D fixed	0.121	0.537	0.684	0.75	0.577	0.465	1.09	1.21	1.23
E fixed	0.0909	0.28	0.721	0.679	0.447	0.486	1.19	1.28	0.955
F fixed	0.427	1.43	1.46	1.18	0.906	0.58	0.839	0.886	1.02
G fixed	0.756	1.02	0.866	0.753	0.711	0.513	1.06	1.02	1.02
H fixed	0.474	1.66	1.37	1.17	1.23	0.622	1.02	1.06	1.21
I fixed	0.235	0.91	1.05	1.15	0.727	1.49	0.814	1.08	0.752
K fixed	0.472	1.6	0.821	1.55	1.59	0.547	0.723	1.01	1.07
L fixed	0.426	1.26	1.15	1	1.43	1.87	0.915	0.817	0.912
M fixed	0.4	1.16	1.13	1.11	1.35	1.35	1.07	0.993	0.812
N fixed	0.216	1.06	0.676	0.933	0.86	0.776	1.11	1.02	1.07
P fixed	10.5	0.399	1.05	0.748	0.916	3.03	1.48	0.895	0.946
Q fixed	0.289	0.785	0.682	0.96	1.25	1.1	1.15	1.09	1.03
R fixed	0.442	1.67	0.931	1.07	1.76	0.901	1.11	1.11	1.18
V fixed	0.256	0.8	0.799	0.853	0.669	1.34	0.79	0.643	0.689
W fixed	0.453	0.885	1.41	1.3	0.828	0.512	0.807	1.04	1.05
Y fixed	0.439	0.869	1.35	1.1	1.04	0.549	0.838	0.945	1.15
pThr fixed	0.432	0.683	0.642	0.847	0.381	1.05	1.2	1.18	1.16
pTyr fixed	0.517	0.404	1.01	0.861	0.351	0.691	1.31	0.918	1.18

ROCK2, construct: aa5-554 (from UniProt O75116)
relative phosphorylation
Details	at +1	at +2	at +3	at +4	at -1	at -2	at -3	at -4	at -5
A fixed	0.695	1.01	0.926	0.921	0.75	0.607	0.647	0.938	1
D fixed	0.471	0.48	0.757	0.745	0.406	0.263	0.297	0.58	0.562
E fixed	0.455	0.51	0.614	0.751	0.301	0.251	0.28	0.613	0.471
F fixed	0.69	0.707	0.962	1.1	0.559	0.474	0.341	0.622	0.679
G fixed	0.957	0.876	1.73	1.31	1.08	0.706	0.724	1.22	1.19
H fixed	0.984	1.16	1.25	1.1	1.16	1.42	1.59	1.13	1.25
I fixed	1.49	1.29	0.948	0.984	0.482	0.3	0.281	0.516	0.692
K fixed	1.19	1.44	0.998	1.2	2.77	2.71	2.57	2.3	2.45
L fixed	1.48	1.08	0.952	0.886	0.912	0.391	0.304	0.504	0.494
M fixed	1.52	0.743	0.876	0.929	0.792	0.446	0.361	0.707	0.571
N fixed	1.43	0.734	0.931	1.04	1.15	0.937	0.637	0.836	0.779
P fixed	0.266	0.935	1.28	1.29	1.28	0.665	0.785	1.19	1.04
Q fixed	1.51	0.75	0.835	0.946	1.09	0.801	0.651	0.904	0.865
R fixed	1.77	1.81	0.97	1.07	2.2	5.27	6.24	2.89	2.83
V fixed	0.908	1.48	0.835	0.727	0.619	0.321	0.297	0.555	0.641
W fixed	0.616	0.922	1.08	1.09	0.528	0.762	0.53	0.822	0.736
Y fixed	0.564	1.07	1.06	0.914	0.929	0.681	0.461	0.673	0.758
pThr fixed	0.595	0.566	0.556	0.763	0.336	0.465	0.494	0.755	0.805
pTyr fixed	0.409	0.592	0.736	0.663	0.386	0.338	0.435	0.489	0.705
